Publication PMC8675206

B1: 25bp blunt (dsDNA)
DNA 1: AAGCTTGCATGCCTGCAGGTCGACC
DNA 2: GGTCGACCTGCAGGCATGCAAGCTT
B2: 100bp blunt (dsDNA)
DNA 1: GCACAATCTTCTCGCGCAACGCGTCAGTGGGCTGATCATTAACTATCCGCTGGATGACCAGGATGCCATTGCTGTGGAAGCTGCCTGCACTAATGTTCCG
DNA 2: CGGAACATTAGTGCAGGCAGCTTCCACAGCAATGGCATCCTGGTCATCCAGCGGATAGTTAATGATCAGCCCACTGACGCGTTGCGCGAGAAGATTGTGC

How the values were obtained:
DNA-PKcs = DNA-PKcs (Homo sapiens (HeLa cells), UniProt P78527 1-4128); experiment: HX-MS on bead-captured DNA
DNA-PKcs;Ku70;Ku80 = DNA-PKcs;Ku70;Ku80 (Homo sapiens (HeLa cells);Homo sapiens …, UniProt P78527;P12956;P13010 1-4128;2-609;2-732, ||); experiment: pull-down

Sequence of DNA-PKcs (P78527 whole entry): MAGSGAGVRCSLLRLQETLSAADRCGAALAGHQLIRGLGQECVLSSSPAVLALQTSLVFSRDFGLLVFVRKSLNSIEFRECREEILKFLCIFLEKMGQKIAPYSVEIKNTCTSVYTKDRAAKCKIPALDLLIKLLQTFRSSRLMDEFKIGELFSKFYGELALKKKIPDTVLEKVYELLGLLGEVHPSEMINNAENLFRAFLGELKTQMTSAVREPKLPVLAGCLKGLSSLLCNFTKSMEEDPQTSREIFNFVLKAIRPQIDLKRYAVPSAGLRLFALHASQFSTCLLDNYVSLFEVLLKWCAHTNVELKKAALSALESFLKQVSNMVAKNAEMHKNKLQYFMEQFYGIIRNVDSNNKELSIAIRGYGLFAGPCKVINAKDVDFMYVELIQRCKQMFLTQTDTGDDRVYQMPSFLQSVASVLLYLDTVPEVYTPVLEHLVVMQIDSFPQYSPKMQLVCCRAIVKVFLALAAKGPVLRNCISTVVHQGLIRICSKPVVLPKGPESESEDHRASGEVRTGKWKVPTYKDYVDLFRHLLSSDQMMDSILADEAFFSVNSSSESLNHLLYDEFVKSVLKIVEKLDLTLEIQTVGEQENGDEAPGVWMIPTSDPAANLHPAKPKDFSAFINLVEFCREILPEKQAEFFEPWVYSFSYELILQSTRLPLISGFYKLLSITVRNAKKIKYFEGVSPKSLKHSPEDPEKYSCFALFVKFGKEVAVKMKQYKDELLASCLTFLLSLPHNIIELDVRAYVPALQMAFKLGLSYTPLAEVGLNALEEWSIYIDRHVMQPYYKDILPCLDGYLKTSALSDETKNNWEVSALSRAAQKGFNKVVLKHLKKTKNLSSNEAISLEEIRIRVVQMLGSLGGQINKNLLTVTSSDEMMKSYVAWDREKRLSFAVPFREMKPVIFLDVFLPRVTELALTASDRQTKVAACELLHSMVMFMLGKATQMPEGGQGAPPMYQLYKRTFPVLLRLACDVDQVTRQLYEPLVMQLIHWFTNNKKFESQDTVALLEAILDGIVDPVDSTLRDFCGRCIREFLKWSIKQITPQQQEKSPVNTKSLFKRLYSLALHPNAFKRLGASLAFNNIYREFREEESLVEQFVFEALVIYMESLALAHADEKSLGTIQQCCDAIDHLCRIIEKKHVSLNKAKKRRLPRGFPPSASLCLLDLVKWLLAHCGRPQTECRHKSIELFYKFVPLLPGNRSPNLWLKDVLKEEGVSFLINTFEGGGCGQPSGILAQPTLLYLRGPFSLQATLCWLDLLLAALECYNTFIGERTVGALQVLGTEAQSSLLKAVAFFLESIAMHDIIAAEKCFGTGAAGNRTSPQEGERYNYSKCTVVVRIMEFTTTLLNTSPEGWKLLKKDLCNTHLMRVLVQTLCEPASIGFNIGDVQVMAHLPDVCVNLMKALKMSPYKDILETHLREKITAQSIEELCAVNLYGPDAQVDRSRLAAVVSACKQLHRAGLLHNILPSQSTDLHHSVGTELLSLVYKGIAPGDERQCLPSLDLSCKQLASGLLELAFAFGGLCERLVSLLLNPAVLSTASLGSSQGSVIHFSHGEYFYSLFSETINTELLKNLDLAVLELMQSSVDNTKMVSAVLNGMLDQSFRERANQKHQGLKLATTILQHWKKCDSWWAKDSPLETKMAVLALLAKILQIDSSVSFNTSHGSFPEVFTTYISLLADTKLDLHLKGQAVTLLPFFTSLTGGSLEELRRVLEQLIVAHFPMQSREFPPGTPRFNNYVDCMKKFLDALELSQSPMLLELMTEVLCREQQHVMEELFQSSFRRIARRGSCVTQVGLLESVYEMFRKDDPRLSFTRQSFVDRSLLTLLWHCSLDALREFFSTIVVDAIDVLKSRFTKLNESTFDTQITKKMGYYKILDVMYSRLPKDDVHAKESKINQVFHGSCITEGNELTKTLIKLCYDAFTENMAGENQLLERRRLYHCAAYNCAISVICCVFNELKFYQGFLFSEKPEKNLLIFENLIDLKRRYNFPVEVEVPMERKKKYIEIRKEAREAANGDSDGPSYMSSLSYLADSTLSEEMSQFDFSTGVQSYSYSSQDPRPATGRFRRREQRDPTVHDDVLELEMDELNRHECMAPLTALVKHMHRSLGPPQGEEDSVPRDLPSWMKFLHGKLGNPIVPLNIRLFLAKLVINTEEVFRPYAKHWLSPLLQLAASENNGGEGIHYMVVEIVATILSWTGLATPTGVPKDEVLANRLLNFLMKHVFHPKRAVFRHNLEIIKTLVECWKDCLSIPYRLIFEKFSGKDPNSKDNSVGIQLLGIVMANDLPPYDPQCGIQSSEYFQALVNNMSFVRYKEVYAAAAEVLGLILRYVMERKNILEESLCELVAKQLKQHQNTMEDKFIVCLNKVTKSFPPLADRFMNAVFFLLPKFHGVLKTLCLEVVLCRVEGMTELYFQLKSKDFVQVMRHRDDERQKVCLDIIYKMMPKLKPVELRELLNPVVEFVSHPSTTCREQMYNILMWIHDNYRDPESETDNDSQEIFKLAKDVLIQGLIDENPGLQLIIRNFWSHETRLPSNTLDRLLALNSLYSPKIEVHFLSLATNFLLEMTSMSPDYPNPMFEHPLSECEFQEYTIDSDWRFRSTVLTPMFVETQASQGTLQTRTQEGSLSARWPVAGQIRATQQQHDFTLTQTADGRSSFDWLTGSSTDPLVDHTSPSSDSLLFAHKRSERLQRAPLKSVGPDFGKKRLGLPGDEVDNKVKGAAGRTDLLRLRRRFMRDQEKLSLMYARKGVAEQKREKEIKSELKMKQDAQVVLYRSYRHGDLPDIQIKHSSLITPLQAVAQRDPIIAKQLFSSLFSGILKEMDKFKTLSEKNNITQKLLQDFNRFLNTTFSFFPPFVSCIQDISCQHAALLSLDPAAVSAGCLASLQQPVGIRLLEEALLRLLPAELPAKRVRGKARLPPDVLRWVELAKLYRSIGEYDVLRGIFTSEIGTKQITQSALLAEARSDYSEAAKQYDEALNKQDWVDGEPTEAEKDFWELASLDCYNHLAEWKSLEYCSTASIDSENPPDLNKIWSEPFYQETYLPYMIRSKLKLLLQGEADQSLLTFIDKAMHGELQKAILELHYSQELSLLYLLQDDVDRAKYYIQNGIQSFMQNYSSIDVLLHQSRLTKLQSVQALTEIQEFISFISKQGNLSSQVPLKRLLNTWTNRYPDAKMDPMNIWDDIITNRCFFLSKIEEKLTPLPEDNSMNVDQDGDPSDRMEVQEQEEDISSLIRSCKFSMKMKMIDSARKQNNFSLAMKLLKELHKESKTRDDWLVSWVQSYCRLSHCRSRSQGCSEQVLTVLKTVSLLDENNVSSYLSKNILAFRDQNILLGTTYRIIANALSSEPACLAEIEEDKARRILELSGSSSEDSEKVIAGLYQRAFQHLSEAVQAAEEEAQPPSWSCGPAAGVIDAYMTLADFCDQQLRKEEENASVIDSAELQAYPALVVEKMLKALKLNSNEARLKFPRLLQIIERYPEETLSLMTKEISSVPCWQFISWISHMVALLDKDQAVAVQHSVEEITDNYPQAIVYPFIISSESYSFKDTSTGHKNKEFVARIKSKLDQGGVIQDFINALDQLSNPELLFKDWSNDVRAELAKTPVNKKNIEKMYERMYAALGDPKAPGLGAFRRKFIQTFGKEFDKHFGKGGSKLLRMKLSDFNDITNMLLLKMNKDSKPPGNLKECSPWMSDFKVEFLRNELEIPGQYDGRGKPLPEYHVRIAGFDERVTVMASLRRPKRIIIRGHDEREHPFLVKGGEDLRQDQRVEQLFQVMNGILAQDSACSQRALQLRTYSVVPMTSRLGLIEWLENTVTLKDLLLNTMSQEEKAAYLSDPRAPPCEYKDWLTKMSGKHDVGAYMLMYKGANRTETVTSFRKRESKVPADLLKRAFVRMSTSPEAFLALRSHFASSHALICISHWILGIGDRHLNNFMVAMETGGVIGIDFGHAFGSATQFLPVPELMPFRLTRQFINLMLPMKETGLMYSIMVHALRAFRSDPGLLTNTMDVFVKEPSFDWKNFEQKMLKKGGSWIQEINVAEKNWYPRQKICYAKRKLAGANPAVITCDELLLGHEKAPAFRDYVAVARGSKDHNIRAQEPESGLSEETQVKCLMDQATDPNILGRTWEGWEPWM

Row | Binder | binding result (DNA-PKcs) | binding result (DNA-PKcs;Ku70;Ku80)
1 | B1 | binds | 
2 | B2 |  | binds
